In test [1] the target is T1, Aβ1-42 (UniProt P05067 672-713).
T1 construct: domain: Aβ1-42; Aβ 1-42 is a part of it; also called A beta
The experiment in a line: Aβ 1-42 ELISA, peptide on plate; parent antibody. The protocol: (§1) ELISA assays were performed to screen for antibodies that bind a desired target antigen as follows. Maxisorb NUNC Immuno plates were coated with 100 μL/well of 1 μg/ml of Aβ1-42 diluted in coating buffer overnight at 6° C. Plates were washed three times with PBS containing 0.02% Tween 20. Blocking solution was prepared by dissolving the blocking reagent for ELISA (Roche) in 100 mL water and then diluted further 1:10 prior to use. Plates were blocked by the addition of 265 μL/well blocking solution for 2 hours at room temperature. Plates were washed three times after blocking with PBS containing 0.02% Tween 20.
(§2) Antibody or DVD-Igs were diluted to 100 ng/μL in PBST+0.5% BSA and serially diluted 1:3. One hundred microliters of antibody or DVD-Ig preparations was added to the plate and incubated for 2 hour at room temperature. Wells were washed three times with PBS containing 0.02% Tween 20.
(§3) One hundred microliters of TMB solution was added to each well and incubated for 10 minutes. TMB solution was prepared by mixing 20 mL 100 mM natrium-acetate pH4.9 with 200 μL TMB solution (Roche #92817060) and 29.5 μL 3% H₂O₂. The reaction was stopped by the addition of 50 μL 1N sulphuric acid. Plates were read spectrophotometrically at a wavelength of 450 nm.

Test [2] addresses T2, Aβ 20-42 globulomer (UniProt P05067 691-713).
T2 construct: domain: Aβ 20-42 globulomer
T2 peptide (looked up): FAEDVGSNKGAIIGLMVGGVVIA
The experiment in a line: Aβ 20-42 globulomer ELISA, antigen on plate; N-terminal VD. The protocol:
(§4) ELISA assays were performed to screen for antibodies that bind a desired target antigen as follows. Aβ 20-42 globulomer and PBS at 37° C. was pre-warmed for 1 minute. High bind ELISA plates (Corning Costar #3369, Acton, Mass.) were coated with 100 μL/well of 41 µg/ml of Aβ 20-42 globulomer diluted in PBS overnight at 4° C. Plates were blocked with 320 μL/well of 100% superblock PBS buffer (Thermo Scientific, #37515) and incubated for 45 minutes at room temperature. Plates were washed three times after blocking with PBS containing 0.02% Tween 20.
(§5) Antibody or DVD-Igs were diluted to 2000 ng/mL, 1000 ng/mL, 200 ng/mL, 40 ng/mL, 8 ng/mL, 1.6 ng/mL and 0.32 ng/mL in 10% superblock in PBS. One hundred microliters of antibody or DVD-Ig preparations was added to the plate in triplicate and incubated for 2 hours at room temperature. Wells were washed five times with PBS containing 0.02% Tween 20.
(§6) One hundred microliters of TMB solution (Invitrogen-Zymed; #00-2023) was added to each well and incubated for 5 minutes. The reaction was stopped by the addition of 100 μL 2N sulphuric acid. Plates were read spectrophotometrically at a wavelength of 450 nm.

In test [3] the target is T1, Aβ1-42. The experiment in a line: Aβ 1-42 ELISA, peptide on plate; C-terminal VD. The protocol:
as §1, §2, §3

For test [4], the target named is T3, IGF-II (UniProt P01344 25-91).
T3 construct: Bought reagent; also called IGF2; IGF-2
The experiment in a line: direct bind ELISA, antigen on plate; parent antibody; second of the two numbers, IGF2. How it is done: (§7) Enzyme Linked Immunosorbent Assays to screen for antibodies that bind a desired target antigen were performed as follows. High bind ELISA plates (Corning Costar #3369, Acton, Mass.) were coated with 100 μL/well of 10 μg/ml of desired target antigen (R&D Systems, Minneapolis, Minn.) or desired target antigen extra-cellular domain/FC fusion protein (R&D Systems, Minneapolis, Minn.) or monoclonal mouse anti-polyHistidine antibody (R&D Systems # MAB050, Minneapolis, Minn.) in phosphate buffered saline (10×PBS, Abbott Bioresearch Center, Media Prep# MPS-073, Worcester, Mass.) overnight at 4° C. Plates were washed four times with PBS containing 0.02% Tween 20. Plates were blocked by the addition of 300 μL/well blocking solution (non-fat dry milk powder, various retail suppliers, diluted to 2% in PBS) for 1/2 hour at room temperature. Plates were washed four times after blocking with PBS containing 0.02% Tween 20.
(§8) One hundred microliters of antibody or DVD-Ig preparations diluted in blocking solution as described above was added to the desired target antigen plate or desired target antigen/FC fusion plate or the anti-polyHistidine antibody/His tagged desired target antigen plate prepared as described above and incubated for 1 hour at room temperature. Wells were washed four times with PBS containing 0.02% Tween 20. […]

For test [5], the target named is T4, IGF-I (UniProt P05019 49-118).
T4 construct: Bought reagent; also called IGF1; IGF-1
Kind of test: direct bind ELISA, antigen on plate; parent antibody; first of the two numbers, IGF1. The protocol:
as §7, §8

Test [6] deals with T1, Aβ1-42. The experiment in a line: Aβ 1-42 ELISA, peptide on plate; N-terminal VD. The protocol: as §1, §2, §3
In test [7] the target is T2, Aβ 20-42 globulomer. Kind of test: Aβ 20-42 globulomer ELISA, antigen on plate; C-terminal VD. How it is done: as §4, §5, §6
In test [8] the target is T5, Recombinant Human IL-1β (human, UniProt P01584 117-269). The experiment in a line: cell-based or functional assay.
In test [9] the target is T5, Recombinant Human IL-1β. Kind of test: direct bind ELISA, antigen on plate; C-terminal VD. How it is done:
as §7
(§9) One hundred microliters of antibody or DVD-Ig preparations diluted in blocking solution as described above was added to the desired target antigen plate or desired target antigen/FC fusion plate or the anti-polyHistidine antibody/His tagged desired target antigen plate prepared as described above and incubated for 1 hour at room temperature. Wells were washed four times with PBS containing 0.02% Tween 20.
(§10) One hundred microliters of 10 ng/mL goat anti-human IgG-FC specific HRP conjugated antibody (Southern Biotech #2040-05, Birmingham, Ala.) was added to each well of the desired target antigen plate or anti-polyHistidine antibody/Histidine tagged desired target antigen plate. Alternatively, one hundred microliters of 10 ng/mL goat anti-human IgG-kappa light chain specific HRP conjugated antibody (Southern Biotech #2060-05 Birmingham, Ala.) was added to each well of the desired target antigen/FC fusion plate and incubated for 1 hour at room temperature. Plates were washed 4 times with PBS containing 0.02% Tween 20.

Test [10] deals with T2, Aβ 20-42 globulomer. Kind of test: Aβ 20-42 globulomer ELISA, antigen on plate; parent antibody. The protocol:
as §4, §5, §6

The target in test [11] is T4, IGF-I. The experiment in a line: direct bind ELISA, antigen on plate; C-terminal VD. The protocol:
as §7, §9, §10

Test [12] deals with T3, IGF-II. Kind of test: direct bind ELISA, antigen on plate; C-terminal VD. How it is done:
as §7, §9, §10

The target of test [13] is T5, Recombinant Human IL-1β. Kind of test: direct bind ELISA, antigen on plate; N-terminal VD. The protocol: as §7, §9, §10

B1: AB043 (antibody, human IgG1, kappa, V domains shown)
VH: EVQLLESGGGLVQPGGSLRLSCAASGFTFSNYGMSWVRQAPGKGLEWVASIRSGGGRTYYSDNVKGRFTISRDNSKNTLYLQMNSLRAEDTAVYYCVRYDHYSGSSDYWGQGTLVTVSS
VL: DVVMTQSPLSLPVTPGEPASISCKSSQSLLDSDGKTYLNWLLQKPGQSPQRLIYLVSKLDSGVPDRFSGSGSGTDFTLKISRVEAEDVGVYYCWQGTHFPRTFGQGTKVEIKR
B1: the EC50 with Aβ1-42 [1] worked out at 0.012 nM.

B2: DVD201 (bispecific antibody, human IgG1, kappa)
heavy: not shown
light: DVLVTQSPLSLPVTPGEPASISCRSTQTLVHRNGDTYLEWYLQKPGQSPQSLIYKVSNRFSGVPDRFSGSGSGTDFTLKISRVEAEDVGVYYCFQGSHVPYTFGQGTKLEIKRTVAAPDVVMTQSPLSLPVTPGEPASISCKSSQSLLDSDGKTYLNWLLQKPGQSPQRLIYLVSKLDSGVPDRFSGSGSGTDFTLKISRVEAEDVGVYYCWQGTHFPRTFGQGTKVEIKRTVAAPSVFIFPPSDEQLKSGTASVVCLLNNFYPREAKVQWKVDNALQSGNSQESVTEQDSKDSTYSLSSTLTLSKADYEKHKVYACEVTHQGLSSPVTKSFNRGEC
notes: DVD-Ig; also called VD201H/VD201L
As to B2, the EC50 with Aβ 20-42 globulomer [2] stood at 0.397 nM; with Aβ1-42 [3] it was 0.024 nM.

B3: AB010 (antibody, human IgG1, lambda, V domains shown)
VH: QVQLVQSGAEVKKPGASVKVSCKASGYTFTSYDINWVRQATGQGLEWMGWMNPNSGNTGYAQKFQGRVTMTRNTSISTAYMELSSLRSEDTAVYYCARDPYYYYYGMDVWGQGTTVTVSS
VL: QSVLTQPPSVSAAPGQKVTISCSGSSSNIENNHVSWYQQLPGTAPKLLIYDNNKRPSGIPDRFSGSKSGTSATLGITGLQTGDEADYYCETWDTSLSAGRVFGGGTKLTVLG
notes: also called IGF1,2 parent antibody
Consider B3, for which the values for the EC50 with IGF-II [4] and with IGF-I [5] were 2.93 nM and 10.1 nM, respectively.

B4: DVD202 (bispecific antibody, human IgG1, kappa)
heavy: not shown
light: DVVMTQSPLSLPVTPGEPASISCKSSQSLLDSDGKTYLNWLLQKPGQSPQRLIYLVSKLDSGVPDRFSGSGSGTDFTLKISRVEAEDVGVYYCWQGTHFPRTFGQGTKVEIKRTVAAPDVLVTQSPLSLPVTPGEPASISCRSTQTLVHRNGDTYLEWYLQKPGQSPQSLIYKVSNRFSGVPDRFSGSGSGTDFTLKISRVEAEDVGVYYCFQGSHVPYTFGQGTKLEIKRTVAAPSVFIFPPSDEQLKSGTASVVCLLNNFYPREAKVQWKVDNALQSGNSQESVTEQDSKDSTYSLSSTLTLSKADYEKHKVYACEVTHQGLSSPVTKSFNRGEC
notes: DVD-Ig; also called VD202H/VD202L
For B4, the EC50 was 0.017 nM with Aβ1-42 [6] and 0.178 nM with Aβ 20-42 globulomer [7].

B5: DVD225 (bispecific antibody, human IgG1, kappa)
heavy: not shown
light: DVVMTQSPLSLPVTPGEPASISCKSSQSLLDSDGKTYLNWLLQKPGQSPQRLIYLVSKLDSGVPDRFSGSGSGTDFTLKISRVEAEDVGVYYCWQGTHFPRTFGQGTKVEIKRTVAAPEIVLTQSPDFQSVTPKEKVTITCRASQSIGSSLHWYQQKPDQSPKLLIKYASQSFSGVPSRFSGSGSGTDFTLTINSLEAEDAAAYYCHQSSSLPFTFGPGTKVDIKRTVAAPSVFIFPPSDEQLKSGTASVVCLLNNFYPREAKVQWKVDNALQSGNSQESVTEQDSKDSTYSLSSTLTLSKADYEKHKVYACEVTHQGLSSPVTKSFNRGEC
notes: DVD-Ig; also called VD225H/VD225L
Regarding B5, the “C-Terminal VD IL-1β Neutralization Assay EC50” value with Recombinant Human IL-1β [8] worked out at 12.7 nM. The EC50 turned out to be 0.016 nM with Aβ1-42 [6] and 3940 nM with Recombinant Human IL-1β [9].

B6: AB044 (antibody, human IgG1, lambda, V domains shown)
VH: EVKLVESGGGLVKPGGSLRLSCAASGFTFSSYAMSWVRQAPGKGLEWVASIHNRGTIFYLDSVKGRFTISRDNVRNTLYLQMNSLRAEDTAVYYCTRGRSNSYAMDYWGQGTSVTVSS
VL: DVLVTQSPLSLPVTPGEPASISCRSTQTLVHRNGDTYLEWYLQKPGQSPQSLIYKVSNRFSGVPDRFSGSGSGTDFTLKISRVEAEDVGVYYCFQGSHVPYTFGQGTKLEIKR
notes: the light constant region is therefore doubtful
As for B6, in the test with Aβ 20-42 globulomer [10], the EC50 was determined as 0.319 nM.

B7: DVD229 (bispecific antibody, human IgG1, lambda)
heavy: not shown
light: DVVMTQSPLSLPVTPGEPASISCKSSQSLLDSDGKTYLNWLLQKPGQSPQRLIYLVSKLDSGVPDRFSGSGSGTDFTLKISRVEAEDVGVYYCWQGTHFPRTFGQGTKVEIKRTVAAPQSVLTQPPSVSAAPGQKVTISCSGSSSNIENNHVSWYQQLPGTAPKLLIYDNNKRPSGIPDRFSGSKSGTSATLGITGLQTGDEADYYCETWDTSLSAGRVFGGGTKLTVLGQPKAAPSVTLFPPSSEELQANKATLVCLISDFYPGAVTVAWKADSSPVKAGVETTTPSKQSNNKYAASSYLSLTPEQWKSHRSYSCQVTHEGSTVEKTVAPTECS
notes: DVD-Ig; also called VD229H/VD229L
On to B7, for which the concentration giving a half-maximal response (EC50) with Aβ1-42 [6] came to 0.016 nM; in the test with IGF-I [11], 210 nM; with IGF-II [12], 131 nM.

B8: DVD226 (bispecific antibody, human IgG1, kappa)
heavy: not shown
light: EIVLTQSPDFQSVTPKEKVTITCRASQSIGSSLHWYQQKPDQSPKLLIKYASQSFSGVPSRFSGSGSGTDFTLTINSLEAEDAAAYYCHQSSSLPFTFGPGTKVDIKRTVAAPDVVMTQSPLSLPVTPGEPASISCKSSQSLLDSDGKTYLNWLLQKPGQSPQRLIYLVSKLDSGVPDRFSGSGSGTDFTLKISRVEAEDVGVYYCWQGTHFPRTFGQGTKVEIKRTVAAPSVFIFPPSDEQLKSGTASVVCLLNNFYPREAKVQWKVDNALQSGNSQESVTEQDSKDSTYSLSSTLTLSKADYEKHKVYACEVTHQGLSSPVTKSFNRGEC
notes: DVD-Ig; also called VD226H/VD226L
For B8, the “N-Terminal VD IL-1β Neutralization Assay EC50” value with Recombinant Human IL-1β [8] is 0.028 nM. Besides, the EC50 in the test with Aβ1-42 [3] was determined as 0.045 nM; with Recombinant Human IL-1β [13], 9.52 nM.

The values above are taken from US20150183867A1 (AbbVie / Abbott, published 2015).
